In PMC8120272, “Heterologous Expression and Biochemical Characterization of the Human Zinc Transporter 1 (ZnT1) and Its Soluble C-Terminal Domain” (Frontiers in Chemistry, 2021):

Molecular target: the molecule itself
Experiment: SEC-SAXS (small-angle X-ray scattering); in-line SEC-SAXS with sheath flow, SAXS-WAXS beamline of the Australian Synchrotron; molecular mass estimated from the Porod volume; conditions in Supplementary Table 3

B1: soluble C-terminal domain of human zinc transporter 1 (hZnT1-CTD) (domain or fragment, UniProt Q9Y6M5 342-507, looked up)
chain: ILLQTVPKQIDIRNLIKELRNVEGVEEVHELHVWQLAGSRIIATAHIKCEDPTSYMEVAKTIKDVFHNHGIHATTIQPEFASVGSKSSVVPCELACRTQCALKQCCGTLPQAPSGKDAEKTPAVSISCLELSNNLEKKPRRTKAENIPAVVIEIKNMPNKQPESSL
notes: human zinc transporter 1 (ZnT1, SLC30A1), soluble C-terminal domain, residues 342-507; Cloned into pET24a with a C-terminal His8-tag; no removal of the tag is described
For B1, the “stoichiometry N” value was 2.
